B1: 3'-5' exoribonuclease 1, residues 65 to 114; numbered along this chain, Q8IV48 (parent)
chain: VYKEIAITNGCINRMSKEELRAKLSEFKLETRGVKDVLKKRLKNYYKKQK

± gives the uncertainty stated by the source.

The variants in the data set derive from B1. Kind of data set: abundance fitness (aPCA) (normalised: wild type 0, dead -1); higher = more abundant; growth selection in yeast, the domain comes from the species named. The settings on record: Homo sapiens.
Take VYKEIAITNGCIYRMSKEELRAKLSEFKLETRGVKDVLKKRLKNYYKKQK [N13Y]: the abundance fitness is -0.437 ± 0.06.

Turning to VYKEIAITNGCIDRMSKEELRAKLSEFKLETRGVKDVLKKRLKNYYKKQK [N13D], the abundance fitness was -0.259 ± 0.055.

On to VYKEIAITNGCINRMSKEELRAKDSEFKLETRGVKDVLKKRLKNYYKKQK [L24D], for which the abundance fitness is -1.05 ± 0.13.

For the variant VYKEIAITNGCINRMSKEELRAKNSEFKLETRGVKDVLKKRLKNYYKKQK [L24N], the abundance fitness was -1.03 ± 0.13.

For VYKEIAITNGCINRMSKEELRAKLSEFKLETRGVKDVLKKRLDNYYKKQK [K43D], the abundance fitness is -0.737 ± 0.099.

With VYKEYAITNGCINRMSKEELRAKLSEFKLETRGVKDVLKKRLKNYYKKQK [I5Y], the abundance fitness was -0.029 ± 0.044.

For the variant VYKEIAITNGCINTMSKEELRAKLSEFKLETRGVKDVLKKRLKNYYKKQK [R14T], the abundance fitness was -0.226 ± 0.045.

Consider VYKEIAITNGCINPMSKEELRAKLSEFKLETRGVKDVLKKRLKNYYKKQK [R14P], for which the abundance fitness was -0.908 ± 0.051.

Consider VYKEIAITNGCINRMSKEELRAKLSEFKLETRGVKDSLKKRLKNYYKKQK [V37S], for which the abundance fitness is -0.136 ± 0.055.

With VYKEIAITNGCINRMSKEELRAKLSEFKLETRGVKDQLKKRLKNYYKKQK [V37Q], the abundance fitness was -0.148 ± 0.075.

Consider VYKEIAITNGCINRMSKEELRAKLSEFKLETRGVKDTLKKRLKNYYKKQK [V37T], for which the abundance fitness came to 0.01 ± 0.063.

For the variant VYKEIAITNGCINRMSKEELRAKLSEFKLETRNVKDVLKKRLKNYYKKQK [G33N], the abundance fitness is -0.991 ± 0.061.

Turning to VYKEIAITNGCINRMSKEELRAKLSEFKLETRSVKDVLKKRLKNYYKKQK [G33S], the abundance fitness is -0.787 ± 0.038.

Consider VYKEIAITNGCINRMSKEELRAKLSEQKLETRGVKDVLKKRLKNYYKKQK [F27Q], for which the abundance fitness is -0.166 ± 0.048.

Turning to VYKEIAATNGCINRMSKEELRAKLSEFKLETRGVKDVLKKRLKNYYKKQK [I7A], the abundance fitness was -0.097 ± 0.04.

For VYKEIAITNGCINRMSKEELRAKLSEFKLETRGVKDVRKKRLKNYYKKQK [L38R], the abundance fitness is -0.948 ± 0.072.

Consider VYKEIAITNGCINRMSKEELRAKLSEFKLEMRGVKDVLKKRLKNYYKKQK [T31M], for which the abundance fitness is -0.285 ± 0.055.

VYKEIAITNGCINRMSKEELRAKLSEFKLEWRGVKDVLKKRLKNYYKKQK [T31W]: the abundance fitness is -0.161 ± 0.071.

For VYKEIAITNGCINRMSKEELRAKLSEFKLEARGVKDVLKKRLKNYYKKQK [T31A], the abundance fitness is -0.198 ± 0.042.

As to VYKEIAITNGCINRMSKEELRAKLSEFKLFTRGVKDVLKKRLKNYYKKQK [E30F], the abundance fitness was -0.501 ± 0.04.

VYKEIAITNGCINRMSKEELRAKLSEFKIETRGVKDVLKKRLKNYYKKQK [L29I]: the abundance fitness is -0.349 ± 0.041.

Consider VYKEIAITNGCINRMSKEELRAKLSEFKYETRGVKDVLKKRLKNYYKKQK [L29Y], for which the abundance fitness is -0.874 ± 0.047.

For the variant VYKEIAITNGCINRMSKEELRAKLSEFKDETRGVKDVLKKRLKNYYKKQK [L29D], the abundance fitness is -0.878 ± 0.062.

For VYKEIAITNGCINRMSKEELRAKLSEFKLETRGVKDVLKGRLKNYYKKQK [K40G], the abundance fitness is -0.777 ± 0.04.

With VYKEIAITNGCINRNSKEELRAKLSEFKLETRGVKDVLKKRLKNYYKKQK [M15N], the abundance fitness is -0.789 ± 0.071.

Turning to VYKEIAITTGCINRMSKEELRAKLSEFKLETRGVKDVLKKRLKNYYKKQK [N9T], the abundance fitness is -0.12 ± 0.042.

For VYKEIAITMGCINRMSKEELRAKLSEFKLETRGVKDVLKKRLKNYYKKQK [N9M], the abundance fitness came to 0.036 ± 0.053.

On to VKKEIAITNGCINRMSKEELRAKLSEFKLETRGVKDVLKKRLKNYYKKQK [Y2K], for which the abundance fitness amounted to 0.041 ± 0.064.

As for VEKEIAITNGCINRMSKEELRAKLSEFKLETRGVKDVLKKRLKNYYKKQK [Y2E], the abundance fitness came to 0.048 ± 0.075.

As to VCKEIAITNGCINRMSKEELRAKLSEFKLETRGVKDVLKKRLKNYYKKQK [Y2C], the abundance fitness worked out at 0.013 ± 0.062.

Turning to VYKEIAITNGCINRMSKEELRAKLSEFKLETRGVQDVLKKRLKNYYKKQK [K35Q], the abundance fitness was -0.767 ± 0.075.

Turning to VYKEIAITNGCINRMSKEELRAKLSEFKLETRGVGDVLKKRLKNYYKKQK [K35G], the abundance fitness is -0.845 ± 0.052.

Take VYKEIAITNGCINRMSKEELRAKLSEFKLETRGVFDVLKKRLKNYYKKQK [K35F]: the abundance fitness is -0.81 ± 0.052.

In the case of VYAEIAITNGCINRMSKEELRAKLSEFKLETRGVKDVLKKRLKNYYKKQK [K3A], the abundance fitness was -0.089 ± 0.043.

With VYKEIFITNGCINRMSKEELRAKLSEFKLETRGVKDVLKKRLKNYYKKQK [A6F], the abundance fitness is -0.078 ± 0.077.

Consider VYKEIQITNGCINRMSKEELRAKLSEFKLETRGVKDVLKKRLKNYYKKQK [A6Q], for which the abundance fitness is -0.179 ± 0.11.

VYKEIAITNGCINRMSKEELRALLSEFKLETRGVKDVLKKRLKNYYKKQK [K23L]: the abundance fitness was -0.176 ± 0.035.

As for VYKEIAITNGCINRMSKEELRASLSEFKLETRGVKDVLKKRLKNYYKKQK [K23S], the abundance fitness is -0.318 ± 0.039.

Take VYKEIAITNGCINRMSKEWLRAKLSEFKLETRGVKDVLKKRLKNYYKKQK [E19W]: the abundance fitness is -0.77 ± 0.061.

For VYKEIAITNGCINRMSKEDLRAKLSEFKLETRGVKDVLKKRLKNYYKKQK [E19D], the abundance fitness is -0.107 ± 0.058.

Consider VYKEIAITNGCINRMSKELLRAKLSEFKLETRGVKDVLKKRLKNYYKKQK [E19L], for which the abundance fitness was -0.517 ± 0.041.

Turning to VYKEIAITNGCINRMSEEELRAKLSEFKLETRGVKDVLKKRLKNYYKKQK [K17E], the abundance fitness is -0.518 ± 0.13.

Take VYKEIAITNGCINRMSKEELRAKLSDFKLETRGVKDVLKKRLKNYYKKQK [E26D]: the abundance fitness was -0.119 ± 0.061.

For the variant VYKEIAITNGCINRMSKEELRAKLSEFKLETRGVKDVLKKRLKNYYKRQK [K48R], the abundance fitness was -0.072 ± 0.036.

In the case of VYKEIAITNGGINRMSKEELRAKLSEFKLETRGVKDVLKKRLKNYYKKQK [C11G], the abundance fitness is -0.058 ± 0.035.

On to VYKEIAITNGQINRMSKEELRAKLSEFKLETRGVKDVLKKRLKNYYKKQK [C11Q], for which the abundance fitness was found to be 0.046 ± 0.054.

For VYKEIAITNGNINRMSKEELRAKLSEFKLETRGVKDVLKKRLKNYYKKQK [C11N], the abundance fitness is -0.04 ± 0.05.

With VYKEIAITNGCINRMSKEEWRAKLSEFKLETRGVKDVLKKRLKNYYKKQK [L20W], the abundance fitness was -0.835 ± 0.044.

For the variant VYKEIAITNGCINRMSKEELRAKLSEFKLETRGVKDVLKKRLKNYYKKIK [Q49I], the abundance fitness is -0.074 ± 0.072.

For VYKEIAITNGCINRMSKEELRAKLSEFKLETTGVKDVLKKRLKNYYKKQK [R32T], the abundance fitness was -0.292 ± 0.035.

For the variant VYKEIAITNGCINRMSKEELRAKLSEFKLETSGVKDVLKKRLKNYYKKQK [R32S], the abundance fitness is -0.318 ± 0.033.

Turning to VYKEIAITNGCINRMSKEELRAKLSEFKLETRGVKDVLKKRLKNYYQKQK [K47Q], the abundance fitness is -0.325 ± 0.059.

These data come from the Human Domainome abundance scans (Beltran et al. 2025).
